First the molecules themselves.
B1: Human CHIP (carboxyl terminus of Hsc70 interacting protein) (natural protein, UniProt Q9UNE7 1-303, looked up)
chain: MKGKEEKEGGARLGAGGGSPEKSPSAQELKEQGNRLFVGRKYPEAAACYGRAITRNPLVAVYYTNRALCYLKMQQHEQALADCRRALELDGQSVKAHFFLGQCQLEMESYDEAIANLQRAYSLAKEQRLNFGDDIPSALRIAKKKRWNSIEERRIHQESELHSYLSRLIAAERERELEECQRNHEGDEDDSHVRAQQACIEAKHDKYMADMDELFSQVDEKRKKRDIPDYLCGKISFELMREPCITPSGITYDRKDIEEHLQRVGHFDPVTRSPLTQEQLIPNLAMKEVIDAFISENGWVEDY

Where no end group is shown, it is not given here. 5‑Fam = 5-carboxyfluorescein; Ahx = NCCCCCC(=O)O

What all share (assay): fluorescence polarisation
A general note: Fluorescence polarisation rises when a labelled molecule tumbles more slowly, as on binding a larger partner.

Assay [1] deals with Human Hsp72 (HSPA1A), full-length (human, UniProt P0DMV8 1-641).
In assay [2] the target is T1, Human FKBP52 (52-kDa FK506-binding protein) (human, UniProt Q02790 1-459).
T1 sequence (looked up): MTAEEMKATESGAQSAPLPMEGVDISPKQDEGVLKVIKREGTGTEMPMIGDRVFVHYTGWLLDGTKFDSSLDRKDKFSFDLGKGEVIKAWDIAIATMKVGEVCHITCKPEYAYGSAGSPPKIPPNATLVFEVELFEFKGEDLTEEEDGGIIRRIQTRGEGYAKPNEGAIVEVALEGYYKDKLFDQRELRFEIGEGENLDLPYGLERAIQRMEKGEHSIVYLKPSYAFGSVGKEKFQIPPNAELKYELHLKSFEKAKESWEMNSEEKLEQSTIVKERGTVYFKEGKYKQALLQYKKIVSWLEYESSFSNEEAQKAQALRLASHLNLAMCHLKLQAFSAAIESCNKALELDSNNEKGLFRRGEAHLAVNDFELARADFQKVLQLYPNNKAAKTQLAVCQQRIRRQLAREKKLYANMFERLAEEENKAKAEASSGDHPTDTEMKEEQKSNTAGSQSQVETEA

Assay [3] has as its target T2, Human FKBP51 (51-kDa FK506-binding protein) (human, UniProt Q13451 1-457).
T2 sequence (looked up): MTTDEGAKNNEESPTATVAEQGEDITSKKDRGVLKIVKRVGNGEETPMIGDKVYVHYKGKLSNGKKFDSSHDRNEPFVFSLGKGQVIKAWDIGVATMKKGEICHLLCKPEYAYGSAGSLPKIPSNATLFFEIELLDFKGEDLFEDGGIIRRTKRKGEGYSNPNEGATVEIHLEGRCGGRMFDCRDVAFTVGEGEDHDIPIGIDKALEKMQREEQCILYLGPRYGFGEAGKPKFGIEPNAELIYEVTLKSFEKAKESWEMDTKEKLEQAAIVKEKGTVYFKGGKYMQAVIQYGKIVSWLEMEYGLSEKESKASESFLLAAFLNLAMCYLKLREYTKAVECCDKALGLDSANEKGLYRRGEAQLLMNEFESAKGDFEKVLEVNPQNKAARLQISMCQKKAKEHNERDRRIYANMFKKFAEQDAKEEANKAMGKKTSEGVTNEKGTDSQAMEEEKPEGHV

Assay [4] deals with Human Hop (Hsp70/Hsp90 organizing protein) (human, UniProt P31948 1-543).
The next assay addresses Hop R77A (human, UniProt P31948 1-543, R77A).
For another assay, the target named is Hop K8A (human, UniProt P31948 1-543, K8A).
Assay [5] has as its target B1.

Chain of Human Hsp72 (HSPA1A), full-length (P0DMV8 whole entry): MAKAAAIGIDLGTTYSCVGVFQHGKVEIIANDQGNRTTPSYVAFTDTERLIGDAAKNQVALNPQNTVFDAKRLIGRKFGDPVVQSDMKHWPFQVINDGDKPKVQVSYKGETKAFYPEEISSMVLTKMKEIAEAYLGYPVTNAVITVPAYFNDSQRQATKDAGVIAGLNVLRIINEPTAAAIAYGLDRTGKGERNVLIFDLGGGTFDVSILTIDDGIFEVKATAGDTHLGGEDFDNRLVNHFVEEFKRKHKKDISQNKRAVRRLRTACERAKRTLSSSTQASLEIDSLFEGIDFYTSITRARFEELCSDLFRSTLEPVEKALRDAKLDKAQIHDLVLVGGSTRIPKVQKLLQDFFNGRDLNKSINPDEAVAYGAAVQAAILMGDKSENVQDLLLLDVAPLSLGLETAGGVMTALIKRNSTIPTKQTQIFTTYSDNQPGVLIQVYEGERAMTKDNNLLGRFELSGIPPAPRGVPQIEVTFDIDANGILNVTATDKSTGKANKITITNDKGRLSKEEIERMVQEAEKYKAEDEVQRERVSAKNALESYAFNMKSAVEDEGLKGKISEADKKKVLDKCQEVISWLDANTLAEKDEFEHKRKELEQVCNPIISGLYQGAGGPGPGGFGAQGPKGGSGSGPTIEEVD

Take B1: in assay [1], the binding result was “binds”.

B2: chimeric mutant Hsp72 tracer (Fam-GSGPTMEEVD) (peptide)
peptide: {5‑Fam-Ahx}-GSGPTMEEVD
Usually Kd stands for a measure of binding affinity in units of concentration. In the case of B2, the Kd in assay [2] and in assay [3] was greater than 75 µM in each case.

B3: mutant Hsp90α tracer (Fam-DDTSRIEEVD) (peptide)
peptide: {5‑Fam-Ahx}-DDTSRIEEVD
For the molecule B3, the Kd in assay [2], in assay [3] and in assay [4] was greater than 25 µM in each case.

B4: Hsp90α Lys mutant tracer (Fam-DDTSRMEKVD) (peptide)
peptide: {5‑Fam-Ahx}-DDTSRMEKVD
In the case of B4, the Kd in assay [2] and in assay [3] was greater than 25 µM throughout.

B5: Human DnaJC7 (natural protein, UniProt Q99615 1-494, looked up)
chain: MAAAAECDVVMAATEPELLDDQEAKREAETFKEQGNAYYAKKDYNEAYNYYTKAIDMCPKNASYYGNRAATLMMLGRFREALGDAQQSVRLDDSFVRGHLREGKCHLSLGNAMAACRSFQRALELDHKNAQAQQEFKNANAVMEYEKIAETDFEKRDFRKVVFCMDRALEFAPACHRFKILKAECLAMLGRYPEAQSVASDILRMDSTNADALYVRGLCLYYEDCIEKAVQFFVQALRMAPDHEKACIACRNAKALKAKKEDGNKAFKEGNYKLAYELYTEALGIDPNNIKTNAKLYCNRGTVNSKLRKLDDAIEDCTNAVKLDDTYIKAYLRRAQCYMDTEQYEEAVRDYEKVYQTEKTKEHKQLLKNAQLELKKSKRKDYYKILGVDKNASEDEIKKAYRKRALMHHPDRHSGASAEVQKEEEKKFKEVGEAFTILSDPKKKTRYDSGQDLDEEGMNMGDFDPNNIFKAFFGGPGGFSFEASGPGNFFFQFG
In the case of B5, the binding result in assay [1] is “binds”.

B6: Hsc70 C-terminal tracer (Fam-SSGPTIEEVD) (peptide)
peptide: {5‑Fam-Ahx}-SSGPTIEEVD
For the molecule B6, the Kd was greater than 25 µM with Hop R77A, greater than 25 µM with Hop K8A, greater than 75 µM in assay [2] and greater than 75 µM in assay [3].

B7: Hsp72 C-terminal tracer (Fam-GSGPTIEEVD) (peptide)
peptide: {5‑Fam-Ahx}-GSGPTIEEVD
As for B7, the Kd with Hop R77A is greater than 25 µM; in the assay with Hop K8A, greater than 25 µM; in assay [5], 0.51 µM; in assay [2], greater than 75 µM.

B8: Hsp90α Ala mutant tracer (Fam-DDTSRMEAVD) (peptide)
peptide: {5‑Fam-Ahx}-DDTSRMEAVD
B8: the equilibrium dissociation constant (Kd) in assay [3] is 4.63 µM.
